Positions count from the first letter of the chain named.
B1: M0114-F04 (Fab, V domains shown)
VH: EVQLLESGGGLVQPGGSLRLSCAASGFTFSHYYMAWVRQAPGKGLEWVSYISPSGGSTKYADSVKGRFTISRDNSKNTLYLQMNSLRAEDTAMYYCARGGGTGTFDIWGQGTMVTVSS
VL: AQSELTQPASVSGSPGQSIAISCTGTSSDIGAYPFVSWYQQHPGKAPKLLIYGVTTRPFGVSDRFSGSKSGSTASLTISGLQAEDEADYYCSSYAGGRNLPYVFGTGTTVTVLG
B2: M0122-A05 (Fab, V domains shown)
VH: EVQLLESGGGLVQPGGSLRLSCAASGFTFSHYPMHWVRQAPGKGLEWVSSIWPSGGHTSYADSVKGRFTISRDNSKNTLYLQMNSLRAEDTATYYCARLSQPIWGQGTLVTVSS
VL: DIQMTQSPSSFSASTGDRVTITCRASQSISRWLAWYQQKPGKAPKLLIYEASTLESGVPSTFSGSGSGTEFTLTISSLQPDDFATYYCQQYNSYPLTFGGGTKVEIKR
B3: M0093-C10 (Fab, V domains shown)
VH: EVQLLESGGGLVQPGGSLRLSCAASGFTFSRYTMEWVRQAPGKGLEWVSVIRPSGGTTMYADSVKGRFTISRDNSKNTLYLQMNSLRAEDMAVYYCARVGVWYGMDVWGQGTTVTVSS
VL: DIQITQSPSSLSASVGDRVTITCRASQGISNYLAWYQQKPGKVPKLLIYAASTLQSGVPSRFSGSGSGTDFTLTISSLQPEDFATYYCEQLNSFPHAFGQGTKVEIKR
B4: M0102-H02 (Fab, V domains shown)
VH: B3 VH with R31M, T33R, E35F, R52G, T57Q, M59A, M91T
VL: DIQMTQSPATLSLSPGERAALSCRASQSVSNFLAWYQQKPGQAPRLLIYGASNRATDIPARFSGSGSGTDFTLTISSLEPEDFATYYCQQANSFPLTFGGGTKVEIKR
B5: M0102-G11 (Fab, V domains shown)
VH: EVQLLESGGGLVQPGGSLRLSCAASGFTFSRYMMEWVRQAPGKGLEWVSGISPSGGTTKYADSVKGRFTISRDNSKNTLYLQMNSLRAEDTAVYYCTRGGYNNYYYALDVWGQGTTVTVSS
VL: DIQMTQSPDTLSLSPGERATLSCRASESVSSSYFAWYQQKRGQAPRLLIYGASRRVTGIPDRFSGSGSGTDFTLTITRLEPEDFAVYYCQQYGGSPRSFGQGTKVEIKR
B6: M0094-D08 (Fab, V domains shown)
VH: EVQLLESGGGLVQPGGSLRLSCAASGFTFSHYLMVWVRQAPGKGLEWVSGIVPSGGYTMYADSVKGRFTISRDNSKNTLYLQMNSLRAEDTAVYYCTRASYSSFGLDYWGQGTLVTVSS
VL: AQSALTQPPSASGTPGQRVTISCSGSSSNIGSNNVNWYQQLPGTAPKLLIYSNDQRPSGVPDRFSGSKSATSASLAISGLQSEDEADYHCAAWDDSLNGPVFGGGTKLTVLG
B7: M0123-E02 (Fab, V domains shown)
VH: EVQLLESGGGLVQPGGSLRLSCAASGFTFSHYRMDWVRQAPGKGLEWVSGIYPSGGHTNYADSVKGRFTISRDNSKNTLYLQMNSLRAEDTAVYYCARDRGWYGADYWGQGTLVTVSS
VL: AQSALTQPASVSGSPGQSITISCSGTSSDVGAYYHVSWYQQHPGKAPKLMIYDVSNRPSGVSNRFSGSKSGNTASLTISGLQAEDEADYYCSLYIGTSTPWVFGGGTKLTVLG
B8: M0096-D03 (Fab, V domains shown)
VH: EVQLLESGGGLVQPGGSLRLSCAASGFTFSHYWMVWVRQAPGKGLEWVSWIGPSGGGTVYADSVKGRFTISRDNSKNTLYLQMNSLRAEDTAVYYCARGNGGFDSWGRGTLVTVSS
VL: AQSELTQPRSVSGSPGQSVTISCTGTTRDVGAYKYVSWYQQYPGKAPKLMLSDVSKRPSGVPDRFSGSKSGNTASLTISGLQSEDEADYYCCSFAGSYTWIFGGGTKVTVLG
B9: M0132-C01 (Fab, V domains shown)
VH: EVQLLESGGGLVQPGGSLRLSCAASGFTFSRYLMWWVRQAPGKGLEWVSVIGPSGGWTRYADSVKGRFTISRDNSKNTLYLQMNSLRAEDTAVYYCARHPGDYWGQGTLVTVSS
VL: AQSALTQPRSVSGSPGQSVTISCTGTGSNIDGYNYVSWYQQYPGNAPKLIIYDVGKRPSGVPNRFSGSKSGNTASLTISGLQAEDEADYYCCSYAGSYSYVFGVGTKVTVLG
B10: M0093-G09 (Fab, V domains shown)
VH: EVQLLESGGGLVQPGGSLRLSCAASGFTFSWYSMTWVRQAPGKGLEWVSSISPSGGATKYADSVKGRFTISRDNSKNTLYLQMNSLRAEDTAVYYCARGGAASLPFDYWGQGTLVTVSS
VL: DIQMTQSPSSLSASVGDRVTITCRASQSISSFLNWYQQKPGKAPKLLLMYAASSLQSGVPSRFSGSGSGTDFTLTISSLQPEDFATYYCQQSYSTPYTFGQGTKLEIKR
B11: M0131-G06 (Fab, V domains shown)
VH: EVQLLESGGGLVQPGGSLRLSCAASGFTFSSYAMTWVRQAPGKGLEWVSSISSSGGDTAYADSVKGRFTISRDNSKNTLYLQMNSLRAEDTAVYYCATERHYIWGSYRYSWFDPWGQGTLVTVSS
VL: AQYELTQAPSASGTPGQRVTISCSGSRSNIGTNPVNWYQHVPGTAPKLLILVNNQRPSGVPDRFSGSKSGASASLAISGLQSEDEAEYYCATWDGSLNGPVFGGGTKLTVLR
B12: M0095-G09 (Fab, V domains shown)
VH: EVQLLESGGGLVQPGGSLRLSCAASGFTFSNYNMHWVRQAPGKGLEWVSVIYPSGGYTVYADSVKGRFTISRDNSKNTLYLQMNSLRAEDTAVYYCARRGNWGGIDYWGQGTLVTVSS
VL: DIQMTQSPSSLSASVGDRVTITCRASQSISNWLAWYQQKPGKAPKLLIYKASTLQTGVPSRFSGSGSGTEFSLTISSLQPDDFATYYCQQTYSAPFNFGPGTKVDIKR
B13: M0122-D01 (Fab, V domains shown)
VH: EVQLLESGGGLVQPGGSLRLSCAASGFTFSHYIMHWVRQAPGKGLEWVSGIYPSGGSTKYADSVKGRFTISRDNSKNTLYLQMNSLRAEDTAVYYCARALVGALDYWGQGTLVTVSS
VL: DIQMTQSPSSVSASVGDRVTITCRASQDIRTWLAWYQQKSGKAPKLLIYSSSSLQSGISSRFSGSGSGTDFTLTISNLQPEDSAIYYCQQATTFPWTFGQGTKVEIKR
B14: M0117-B07 (Fab, V domains shown)
VH: EVQLLESGGGLVQPGGSLRLSCAASGFTFSHYTMWWVRQAPGKGLEWVSRIWPSGGTTRYADSVKGRFTISRDNSKNTLYLQMNSLRAEDTAVYYCARGGSYLAFDIWGQGTMVTVSS
VL: DIQMTQSPATLSLSPGERATLSCRASQSVSSYLAWYQQKPGQAPRLLIYDASNRATGIPARFSGSGSGTDFTLTISSLEPEDFAVYYCQQRSNFGGGTKVEIKR
B15: M0114-E02 (Fab, V domains shown)
VH: B14 VH with T33K, W35M, R50Y, W52Y, T57W, R59G, G99V, S101P, Y102W, L103D
VL: DIQMTQSPATLSLSPGERATLSCRASQSVGGYLAWYQQKPGQAPRLLIYDASKRATGIPARFSGSGSGTDFTLTISSLEPEDFAVYYCQQRSKWPPYTFGQGTKLEIKR
B16: M0126-H09 (Fab, V domains shown)
VH: B14 VH with H31N, W35M, R50G, W52Y, T57Q, R59A, Y102W, L103Y
VL: AQSVLTQDPAVSVALGQTVRFTCQGDSLRNYHPSWYQQKPRQAPVLVMFGRNNRPSGIPDRFSGSTSGGTASLTITATQADDEADYFCSSRDGSGNFLFGGGTKLTVLG
B17: M0137-G10 (Fab, V domains shown)
VH: EVQLLESGGGLVQPGGSLRLSCAASGFTFSRYVMHWVRQAPGKGLEWVSYISPSGGVTKYADSVKGRFTISRDNSKNTLYLQMNSLRAEDTAVYYCAKALYPGMGYYYGMDVWGQGTTVTVSS
VL: DIQMTQSPSSLSASVGDRVTITCRTSQTVSTFLNWYQQKPGTAPKLLIYAASRLQSGVPSRFSGSGSETDFTLTISRLQPEDFATYYCQQSFTSPRTFGLGTKVEIKR
B18: M0106-E12 (Fab, V domains shown)
VH: EVQLLESGGGLVQPGGSLRLSCAASGFTFSHYNMTWVRQAPGKGLEWVSSIWPSGGATRYADSVKGRFTISRDNSKNTLYLQMNSLRAEDTAVYYCARTSRFYGMDVWGQGTTVTVSS
VL: DIQMTQSPGTLSLSPGERATLSCRPSQSVYSNYLAWYQQKPGQAPRLLIYGASTRATGIPDRFSGSASGTDFTLTISRLEPEDFAVYYCQQYGNSYTFGPGTKVDIKR
B19: M0092-G06 (Fab, V domains shown)
VH: B18 VH with N33G, T35N, P53S, A57Y, R59T, T99V, S100G, R101I, F102W, G104S
VL: AQSELTQPRSVSGSPGQSVTISCTGTSGEVANYNYVSWYHQDPGLVPKLKIYDVSRRPSGVPDRFSGAKSGDTASLTISGLQAEDEGDYYCASYVGNDKLVFGGGTKLTVLG
B20: M0124-H10 (Fab, V domains shown)
VH: B3 VH with R31N, T33F, E35N, V50S, R52G, P53S, T57Y, M59R, M91T
VL: DIQMTQSPATLSLSAGERATLSCRASQSVNIDVGWYQQKPGQAPRLLIYDASKRATGIPTRFSGSGSGTDFTLTIANLEPEDFAVYYCQQRARWLTFGGGTRLEIKR
B21: M0106-C06 (Fab, V domains shown)
VH: B18 VH with N33T, T35Q, W52Y, R59K, V93M, T99S, S100G, R101Y, F102Y, M105L
VL: DIQMTQSPATLSASVGDRVTITCRASQSVSRWLAWYQQKPGKAPKLLIYKASTLESGVPSRFSGSGSGTEFTLTISSLQPDDFATYYCQQYGAFGQGTKVEIRR

Biological target: T1, hK1 (human tissue kallikrein 1), recombinant (human, UniProt P06870 25-262)
T1 construct: Expressed in P. pastoris from KLK1 cDNA and purified; enzymatically active; also called KLK1; Recombinant (Pichia) Kallikrein
Assay: SPR

Binder | Kd [nM] | koff [s⁻¹] | kon [M⁻¹ s⁻¹]
B1 | 30.7 | 0.0107 | 348000
B2 | 30.8 | 0.00453 | 147000
B3 | 22.6 | 0.00752 | 333000
B4 | 30.8 | 0.0105 | 340000
B5 | 24.8 | 0.0116 | 467000
B6 | 29.8 | 0.00707 | 237000
B7 | 26.8 | 0.00613 | 229000
B8 | 28.1 | 0.00945 | 337000
B9 | 25.6 | 0.0035 | 137000
B10 | 23 | 0.0105 | 458000
B11 | 29.7 | 0.00209 | 70300
B12 | 18.6 | 0.0934 | 5.01e+06
B13 | 20.8 | 0.00427 | 205000
B14 | 22.8 | 0.00826 | 362000
B15 | 23.2 | 0.00936 | 403000
B16 | 23 | 0.415 | 1.8e+07
B17 | 18.8 | 0.00513 | 272000
B18 | 19.9 | 2.44 | 1.23e+08
B19 | 30.9 | 0.00663 | 215000
B20 | 20.3 | 0.0012 | 59100
B21 | 22.6 | 0.0142 | 628000
